Data taken from the domain aggregation screens of Martell et al. (2025).

Experiment: soluble fraction after stress (log2 fold change); higher = more stays soluble; pooled small domains, quantitative proteomics
Settings: stress: pH 4
Procedure, shortened: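 Aggregation propensity here comes from the fold change in the soluble amount of each small protein domain after acid stress, measured in pooled custom libraries by high-throughput quantitative proteomics. The acid stress was pH 4. On the log2 scale, higher values mean more of the domain stayed soluble.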

Sequence	soluble fraction (log2)
HMPNQLLELVEMEIRDLLNEYEFPGDDTPIIQGSALKALEDPMGPWGDKIMDLMDAVDSYIPDPE	-1.46
HMPPAIKTLMFMIQNKSLLKSPKQLAVVQQQLKKIKGVRDVLILLEEGKVMLKVNKHETIHEASIIRLLGG	0.00198
HMPPALTELLSVRTNASGTIDYLLPDRSAGLRVENGSKYSGMVPDSIYRLVAIYEIKDAKEPSAYIYTI	-0.223
HMPPFDDILAEYYEPLYRHVRRMVVSHDDAKDVMQEAMLRIFQGLDGLKDPSAVRTWVWRIATNEALRH	-1.76
HMPPPVDLDKKGYKLRGIVLEDGRSAAFVFVPAEKRVVVLRENASGPVRLLETGMRRIRLQTPEGAGYLEL	-0.259
HMPPQPATQNTKAQVMQLAREKELMAGEGRGANVEALEKFANEHGISLRGMTEEQAEQLVKLLMEYTP	0.19
HMPPRFVPATGADLRRWLDVSGLTAEAAGDLLGVSGARFRQWLSRYRSAPLPDPVRALLVALLRP	-0.156
HMPPSRFNELSMWFQEQLTEAGLKVDSGALKMLIEWLGQDQARLPSIIEVLVSTYGTKKKLTVDEIEPFL	-1.02
HMPPTSADGIEKYLASGMIRGVGPVYAKKLVSAFGDKVFDIIEAAPHQLQEVEGIGRVRAASILAAWAEQ	-0.0654
HMPQLEDLEPLDSSGMVRRDGPHLVLAVGRHRGRHLEEVRDSDPSYLHWLLSPKGIEDIQAKEDIKTYLNL	-0.302
HMPQLVGDVDGDGRVSVTDGEWIRASYGALPWYAGWRAAADLDGSRKIDVVDLELLRTKMGN	-0.772
HMPRIYSITINPEKIRTVIGPGGKVIKDITAKTGTKIEIDDSGKVDIFSPDEEHARMAVEIINTLTEE	-0.221
HMPRKYFPFYFTFRETAQTMPPRLRAVFYEAIIEYGTTGKEPTLPKSIAGYWPLVKPTLDSAKAHYDAG	-0.0316
HMPRNEIQRSVLNELVQWIKNNLAKKLTMQALSRFSGYSEWHLFRLFRHYFNMSPMAYIRQQRMQ	-0.359
HMPRPRIHSVVRGDTLYGISRQYGVAMSKLASLNGLKSPYRIMVGRSLRLPSAIEAERDRTAREVVQ	0.208
HMPRVLSSYTLTLRHQPTAEAVALVRTLLSPAGSVEVKEDGRTLVVRDELAALSRIVGALRSFDH	-0.139
HMPRVSIEKIKKVVELLKHNPDYTYSKIGNIVGIGRKTVSGINNGKLYTDLVEELGINEFPI	0.0348
HMPRYQQIARQLKTAIEHGELKPGARLPSSRTWSQELGISRSTVESAYTELVAQGWLERRGQAGTFVSAQL	0.0517
HMPRYSGMFAAWLHKALARMGKSMSDSARSAFTERVELDYSSANNELQKLSLLVGDRKVITEADVMRAIG	-0.0455
HMPSALGDKIRAARKALKLSLEDLAEKVSSSKSYMWELENRDEPNPGADLLMRIAAALNVTTEHLLGP	-0.0842
HMPSDLQATLRAVQGMLQGVEGVDARLAGQRILLEGDSADARARERAAAIAGIFPGVVIDFVG	0.062
HMPSEAVQNIIGNVKSKRRVATIGQARGLASNVIKEGKFDNVSNTAMVNRLIDLGIISNSIGYQ	0.283
HMPSEQGANKARDIIFRHHMKVDVWVGSWENARNYAEQAIKQGVKVIISRGGTAALLRHSLDTAIIKVR	0.22

Sequence	soluble fraction (log2)
HMPSGLFEPIKKSELSIESIDLLKDQIRAFKQADIRITFGFLLDLITKGENPAYVNASKLFEQAWER	-0.241
HMPSPSTLAKVDPFLLVTNADSLLMARPDDSELRAAIITAHINLAKTNNSVDHYKEVLKIEPQNALANYN	0.0418
HMPSPTPEQVLKAFTDAAMQKNTVEELKQAFAKAWKMLEGTPEQHKAQDVYNIRRDELEGAA	-0.0378
HMPSSIEGIEKYLGSGMIRGIGAVYAKRLVKQFGKDVFDIIEETPERLREVEGIGPIRAARIISGWADQ	-0.154
HMPTITSPMVGTFYRAPSPGAAPFIEVGDTVKKGQVIGIIEAMKLLNEVEADKDGVVQAFAAENGEL	-0.681
HMPTLNIVDGHIAASDGVRILSIHNVTGRRYATSSKLPAGIYIVVLMPAKAETPLTVKVIVEA	-0.17
HMPTMTDIPIKIIRSRRRTLAIEVREGGEVIVRAPLYSRKAEIDAFVKAHENWIITKYNLMITKQN	0.352
HMPTPRVPMSKQRQILQLLQDGHLSTREIAAALHISKTSVGDIAKAARLAGLDWEAASKLSDEELSARIYK	0.0991
HMPTSPKANFLKELPQEFTRKQAVTIGDKLNIKERTVDNYLAKLEQAGYLVKPKAGYYQKIKS	0.22
HMPTTTFENLPDAKKKTIIAALLKEFSQSPLSKAQVAPIVKESQIARGAFYKYFVDLTDAYTYLYRQ	-0.217
HMPTVLKQGSTGQEVKELQQALSKLGYRVTVTGEFDTATHYGVVRFQRKHRLTIDGIVGPQTLSKIRAHQK	-0.0726
HMPVAPTYALTVKTDPPSANVRLLNSPTPYQPGVRLPSGNYDIEVTQSGYATRKESVRIADRDVALNIAL	0.0432
HMPVASNRDVNLDIGERVFVQEWAPNRTARVQYRGSPWEARLAPGAPAAAGEHRVSAVEGNWLVLEPA	-0.19
HMPVEFVKISIKPGHPWENQFVRDIVSLPDLLMVLILRGEERIIPNGNTKILVGDKIVLSALSPG	-1.4
HMPVEHVWHIAENGQTSGPYSKARMGRMAQEGQLTRDTHVWTPGQDGWMRAGDVTELAQLFT	-0.0732
HMPVFSLTPRELEILEWMSTPNTYRQIAAQLSVSEETVRSHAKNILEKMRQPNRAQAVLAAVKMGLIKL	-0.772
HMPVISGQDLRVLIRDTGRERDQGISFLDDGTMVVVEDARRLIGQEVTATVTRVHQTQTGRIVFAHLSN	-0.698
HMPVPSPAEQTATQLANIERHTGITVDGWTRAIAEAGAAKHGEIVAWLKQQGLTHGNANALAHAVRARQSG	0.173
HMPVQSNRDALLDIGQTLQVQAWDAQGSARVSYRGSDWTAEFRGPGAAAPGLHRIIAVQGNRLIVEPA	-0.164
HMPVRIYEISKKLGLENKEVLATAKSLGIAAAKVPSSSLDKITAEYLEEEILKSHPEVAARLK	≥ 0.43
HMPVYEEEVPAALDGQRLDRVVAMVTGLSRSEVGALLAAGAVTVDGTTPAKGSVRLAAGSIVSVTVS	-0.366
HMQAATGVVTASVLNIRQGPGTNYTKVGSLLKGAQVEIVGQNGAWSKIRLKSGITGWVNSSYLKTST	-0.085
HMQAGPEDIIRAKLKTAMPEAQIISIRPTPAGLYQVNAKGYESVFVTADGRYLFQGDLLEIQGDRIVNL	-0.714

Sequence	soluble fraction (log2)
HMQAKNGTVTGSVVNVRGGAGTQYAVKGKASRGTKVTILGQQSSWLNVRLDNGVTGWIHADYVQISE	-1.43
HMQAPHLALSPREFQVLQGLLAGDALDIIAERLHLSAKTVSNHQTLIRQKLGVGNAVELLRYAQLHRL	-0.661
HMQAPIFMNETDGKWYFREKYLNDNHEIAYRVHPEGYDQMEDALRNSVNALNEFAAEMKELRKQV	-0.64
HMQAPVVNHDLIKSFERQWREIKATAKGKVRSVNLSDARSILQSFLNTLQKGPGTDSLISSVQNELSLIA	0.00595
HMQARDQNVDEGKALLEKEFSRLALENLDRDKLANAVNYPTRDDMYAAIGAGDLRVGQVLHQAQQLF	-0.323
HMQASTGNVNTETLNLRKEASTSADILKLLSQGDEVEIVSESNGWYKVKYKDTEGFVSKEYITVN	-0.159
HMQATETFSLIVPMSSAGNRLDVVLSELLPNFSRKKIQDAIKNGDATLNGKAPKIRDKVYGGENITITLIL	0.0369
HMQAVDPLELRAGDFVVHEQHGIGRYVEMVQRTIGGITREYLVIEYAPAKRGQPNDRVFVPTDTLEQVS	-0.579
HMQAVKQIKVERGMTLEKIAQSEFGDSTRWGEIVEVNNLRAPYISDDPTETRDGVLKPGSNLLIPIP	-0.825
HMQDEAQLSMSNKYIFEGNSIVKDNFIEAEKKYRLGVSAKPNNAVGSYNLANAYYNSKLYDEAMLRLL	-0.179
HMQDEREEIAVEDVVGMPLWQARKVIADQGFRVLDDGAGDIVIAQMPSGGGKLIEGGQVMLYTYTD	-0.201
HMQDFEEILKNAKIEDFKHTQTGEDLKVLKIEDKIEDFKGFNAYLVKNQIAYYSKFARGFVVKNIEKLQGV	0.155
HMQDFEQNLFDGKSIYDRMLSKFSLHNVDVKQLVAHFKRKDTEQFFADIGRGLITSAQMLGFLQT	-0.219
HMQDLVAVPALTGLTENDAINKAKANNLIAVVSEYKTENSVEPGKVLEQDPESSTEVKKGTIIKLVVS	0.16
HMQDQVTLIVQVNGKLRGQISISTDATKELIEQTALANENVQKFVDGQSIKKIIIVPGRLVNIV	0.22
HMQDRDKNVPAGKELLDNEIARLNMSLKQVEQFALPRYNLKTLEDLYSGIGSGDIRLNHLINFLQSKLI	-0.892
HMQDREIHIHAGREVLEKELSRLSLHLKNTNLQEYAARFNVKTAEDILAGIGAGDIRPAHVVNLIADKL	-0.222
HMQDSSGENNPQSKLTQQQVDLLMKDLKETNVEFDKLAEKYNVSIKTIRNVNTGIAWRKNDITYPIREP	-0.255
HMQDTQAEEGETLLDALRRIHPESSTGTLRRMLTQGRVQLDGDSVHAAKTVLSAGQRVEVVAR	0.088
HMQDTTLTSQILRVPSSVNINDLANVLKSLAGKNTVVAPYKAANTIIITGYAPNVRRVLSLANELIPRLDV	-0.0875
HMQEAGLITQRIREMREKENWTQEYMAEQLGMSENGYAKIERGESNLSLKRLQQIADIFEVESAELLK	-0.566
HMQEDKSKYLFQRGTAITVLRPAGIVRIGKERVDAVSNGSYIDRGVAVRVIEVEGTRVVVEPVPE	-0.151
HMQEEMIRGDIKLNTVMQTVHLAVGTETERNWQPVETTAKEFELLKLLMENPGVTLKKEYLFHMLI	-0.654
